Reference: IntAct's records for PubMed 19172740

B1: tRNA N6-adenosine threonylcarbamoyltransferase (Saccharomyces cerevisiae), P36132 (parent)
chain: MVNLNTIPPKNGRDYYIALGLEGSANKLGVGIVKHPLLPKHANSDLSYDCEAEMLSNIRDTYVTPPGEGFLPRDTARHHRNWCIRLIKQALAEADIKSPTLDIDVICFTKGPGMGAPLHSVVIAARTCSLLWDVPLVGVNHCIGHIEMGREITKAQNPVVLYVSGGNTQVIAYSEKRYRIFGETLDIAIGNCLDRFARTLKIPNEPSPGYNIEQLAKKAPHKENLVELPYTVKGMDLSMSGILASIDLLAKDLFKGNKKNKILFDKTTGEQKVTVEDLCYSLQENLFAMLVEITERAMAHVNSNQVLIVGGVGCNVRLQEMMAQMCKDRANGQVHATDNRFCIDNGVMIAQAGLLEYRMGGIVKDFSETVVTQKFRTDEVYAAWRD
B2: EKC/KEOPS complex subunit BUD32 (Saccharomyces cerevisiae), P53323 (parent)
chain: MTQEFIDKVSSYLTPDVDIAPISQGAEAIVFTTTTHPYLPRAKDSHQKYIIKYRPPKRYRHPQIDQALTKHRTLNESRLLAKLYLIPGLCVPQLIACDPYNGFIWLEFLGEDLPGGHGFSNLKNFLWMHDQDPYSDLVATTLRKVGRQIGLLHWNDYCHGDLTSSNIVLVRDGARWTPHLIDFGLGSVSNLVEDKGVDLYVLERAILSTHSKHAEKYNAWIMEGFEEVYREQGAKGAKKLKEVTKRFEEVRLRGRKRSMLG
partner: B1 chain
B3: EKC/KEOPS complex subunit BUD32 (Saccharomyces cerevisiae), P53323 (parent)
chain: B2 chain
partner: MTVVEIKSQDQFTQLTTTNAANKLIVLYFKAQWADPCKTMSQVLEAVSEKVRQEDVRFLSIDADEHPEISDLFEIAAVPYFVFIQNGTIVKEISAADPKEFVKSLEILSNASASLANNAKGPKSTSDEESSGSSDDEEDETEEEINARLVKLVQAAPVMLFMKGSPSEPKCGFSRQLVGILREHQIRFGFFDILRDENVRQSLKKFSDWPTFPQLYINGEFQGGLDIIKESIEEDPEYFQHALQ

Variants of: B1
Conditions: with bud32_yeast BUD32, P53323

effect of a mutation on the interaction | Variant
disrupting interaction | MVNLNTIPPKNGRDYYIALGLEGSANKLGVGIVKHPLLPKHANSDLSYDCEAEMLSNIRDTYVTPPGEGFLPRDTARHHRNWCIRLIKQALAEADIKSPTLDIDVICFTKGPGMGAPLHSVVIAARTCSLLWDVPLVGVNHCIGHIEMGREITKAQNPVVLYVSGGNTQVIAYSEKRYRIFGETLDIAIGNCLDRFARTLKIPNEPSPGYNIEQLAKKAPHKENLVELPYTVKGMDLSMSGILASIDLLAKDLFKGNKKNKILFDKTTGEQKVTVEDLCYSLQENLFAMLVEITRRAMAHVNSNQVLIVGGVGCNVRLQEMMAQMCKDRANGQVHATDNRFCIDNGVMIAQAGLLEYRMGGIVKDFSETVVTQKFRTDEVYAAWRD [E295R]
disrupting interaction | MVNLNTIPPKNGRDYYIALGLEGSANKLGVGIVKHPLLPKHANSDLSYDCEAEMLSNIRDTYVTPPGEGFLPRDTARHHRNWCIRLIKQALAEADIKSPTLDIDVICFTKGPGMGAPLHSVVIAARTCSLLWDVPLVGVNHCIGHIEMGREITKAQNPVVLYVSGGNTQVIAYSEKRYRIFGETLDIAIGNCLDRFARTLKIPNEPSPGYNIEQLAKKAPHKENLVELPYTVKGMDLSMSGILASIDLLAKDLFKGNKKNKILFDKTTGEQKVTVEDLCYSLQENLFAMLVRITERAMAHVNSNQVLIVGGVGCNVRLQEMMAQMCKDRANGQVHATDNRFCIDNGVMIAQAGLLEYRMGGIVKDFSETVVTQKFRTDEVYAAWRD [E292R]

Variants of: B1
Conditions: with bud32_yeast BUD32, P53323
Remark: another data set of the same source

effect of a mutation on the interaction | Variant
decreasing interaction | MVNLNTIPPKNGRDYYIALGLEGSANKLGVGIVKHPLLPKHANSDLSYDCEAEMLSNIRDTYVTPPGEGFLPRDTARHHRNWCIRLIKQALAEADIKSPTLDIDVICFTKGPGMGAPLHSVVIAARTCSLLWDVPLVGVNHCIGHIEMGREITKAQNPVVLYVSGGNTQVIAYSEKRYRIFGETLDIAIGNCLDRFARTLKIPNEPSPGYNIEQLAKKAPHKENLVELPYTVKGMRLSMSGILASIDLLAKDLFKGNKKNKILFDKTTGEQKVTVEDLCYSLQENLFAMLVEITERAMAHVNSNQVLIVGGVGCNVRLQEMMAQMCKDRANGQVHATDNRFCIDNGVMIAQAGLLEYRMGGIVKDFSETVVTQKFRTDEVYAAWRD [D236R]

Variants of: B2
Conditions: with kae1_yeast KAE1, P36132

effect of a mutation on the interaction | Variant
disrupting interaction | Y59E

Variants of: B2
Conditions: with kae1_yeast KAE1, P36132
Remark: another data set of the same source

effect of a mutation on the interaction | Variant
disrupting interaction | K57E

Variants of: B2
Conditions: with kae1_yeast KAE1, P36132
Remark: another data set of the same source

effect of a mutation on the interaction | Variant
disrupting interaction | R60E

Variants of: B2
Conditions: with kae1_yeast KAE1, P36132
Remark: another data set of the same source

effect of a mutation on the interaction | Variant
decreasing interaction | R72E

Variants of: B3
Conditions: with glrx4_yeast GRX4, P32642

effect of a mutation on the interaction | Variant
disrupting interaction | D161A
